In the DeepSol protein solubility set:

Test: soluble on expression in E. coli; label from the status in PepcDB or PDB records

Sequence | soluble on expression in E. coli
KTDDPRFKIYKLAYSAFLSRITVKDVIWNKDKGIKLMDGYYWDFINDPHLLVAGGTGGGKTVLLRSILRCLAEIGVCDICDPKRADFVTMSDLSAFEGRIAFEKADIIEKFENAVTIMFARYDFVRNEMKRLGHKDMKKFYDYGLEPYFFVCDEYNALMSSLSYQEREIVDNAFTQYILLGRQVGCNAIIAMQKPSA | not soluble
MKDNNEVLKLFIVSDSIGETAQRMIHATLTQFPDLTQVEIKKFPYIKDEQEFLNVLQLAKEQNAIVATTLVSESFNALGHQFANEHQIPYVDYMSELISIIKQHTHAKPLMESGALRKLNDEYFKRIEAIEYSVKYDDGKHFTDIGEADALIVGVSRTSKTPLSMYLANKGYKIANIPLVPEVAIPDNVFQQKNLKVFGLTASPNYIANIRRNRAETLGLSSESNYNSLERIKKELSYAEEVFRKLNATVINTEYKSIEESAFYIEKFLAKRLEHHHHHH | not soluble
MLMPEMDRRRMMMMAGFGALAAALPAPTAWADPSRPAAPAGPTPAPAAPAAATGGLLFHDEFDGPAGSVPDPSKWQVSNHRTPIKNPVGFDRPQFFGQYRDSRQNVFLDGNSNLVLRATREGNRYFGGLVHGLWRGGIGTTWEARIKFNCLAPGMWPAWWLSNDDPGRSGEIDLIEWYGNGTWPSGTTVHANPDGTAFETCPIGVDGGWHNWRVTWNPSGMYFWLDYADGIEPYFSVPATGIEDLNEPIREWPFNDPGYKVFPVLNLAVGGSGGGDPATGSYPQEMLVDWVRVF | not soluble
MSLTNNNHRLISNSFSTYSIDTSRAYENYLTHWTEWKNNRIQEEQRDIAFQRLVSCLQNQETNLDLSELGLTTLPEIPPGIKSINISKNNLSLIPPLPASLTQLNVSYNRLIELPALPQGLKLLNASHNQLITLPTLPISLKELHVSNNQLCSLPVLPELLETLDVSCNGLAVLPPLPFSLQEISAIGNLLSELPPLPHNIHSIWAIDNMLTDIPYLPENLRNGYFDINQISHIPESILNLRNECSIDISDNPLSSHALQSLQRLTSSPDYHGPQIYFSMSDGQQNTLHRPLADAVTAWFPENKQSDVSQIWHAFEHEEHANTFSAFLDRLSDTVSARNTSGFREQVAAWLEKLSASAELRQQSFAVAADATESCEDRVALTWNNLRKTLLVHQASEGLFDNDTGALLSLGREMFRLEILEDIARDKVRTLHFVDEIEVYLAFQTMLAEKLQLSTAVKEMRFYGVSGVTANDLRTAEAMVRSREENEFTDWFSLWGPWHAVLKRTEADRWALAEEQKYEMLENEYPQRVADRLKASGLSGDADAEREAGAQVMRETEQQIYRQLTDEVLALRLPENGSQLHHSEGHHHHHH | soluble
MSRSLLTNETSELDLLDQRPFEQTDFDILKSYEAVVDGLAMLIGSHCEIVLHSLQDLKCSAIRIANGEHTGRKIGSPITDLALRMLHDMTGADSSVSKCYFTRAKSGVLMKSLTIAIRNREQRVIGLLCINMNLDVPFSQIMNTFIPPETPEVGSAVNFASSVEDLVTQTLEFTIEEVNADRNVSNNAKNRQIVLNLYEKGIFDIKDAINQVADRLNISKHTVYLYIRQFKSGDFQGQDK | not soluble
MSLARPQLTILHCGKLIDGHSKNTKKVVSIIVEKNTIVDIADGYVDPGEGDLAIDLNGYTVLPGLMDMHVHLSGESNPKRYTERFTMDLDDYAYRSIAYAKRTLMAGFTTVRDLGGPINTSLRDAINNNQVVGPRVYSAGKAIATTGGHADPTNGMKFELMGDPGPAEGVVNGIAEARKAVRQRYKNGADLIKITATGGVLSVAKNGENPQFQEDEIRAIVETATDYGMHVAAHAHGAEGMKRAVRAGVRSIEHGTLMDEETMALMKEKGTYYIPTISAGEFVAEKAEIDGYYPDIVRPKAKKIGPQIKKTFQKAYDAGVSIAFGTDSGVSYHGDNAKEFAYMVEAGMSEIEAIISATKTAAELLEISNTLGTIEKDKLADIIAVEGDPIENIVALESVVFVMKNGVIYKNGDNEGHHHHHH | soluble
GKVLDAIIQEKKSGRIPGIYGRLGDLGAIDEKYDIAISSCCHALDYIVVDSIDTAQECVNFLKKHNIGIATFIGLDKMTVWAKKMSKIQTPENTPRLFDLVKVKNEEIRQAFYFALRDTLVANNLDQATRVAYQRDRRWRVVTLQGQIIEQSGTMSGGLEHHHHHH | soluble
SNTRNFVLRDEDGNEHGVFTGKQPRQAALKAANRGSGTKANPDIIRLRERGTKKVHVFKAWKEIVDAPKNRPAWMPEKISKPFVKKERIEKLE | soluble
AHHHHHHGSRVLKSEGVSMLNTELLTTGVKGLDELLGGGVAKGVILQVYGPFATGKTTFAMQVGLLNEGKVAYVDTEGGFSPERLAQMAESRNLDVEKALEKFVIFEPMDLNEQRQVIARLKNIVNEKFSLVVVDSFTAHYRAEGSREYGELSKQLQVLQWIARRKNVAVIVVNQVYYDSNSGILKPIAEHTLGYKTKDILRFERLRVGVRIAVLERHRFRPEGGMVYFKITDKGLEDVKNED | soluble
MTKSYDVWWQKGQESDDDMARDHQEAWERTIEMLDTSDIKGKTILDVGCNQGGFLRKLYDTTPFKEGVGIDLARLSLEKAETLKGERPLTYYLTDKPQETNRTFDTAVSTSVLYLIEDIPQHAQDLKEVLKPGGVYYASFADLTNNPSRQFMDDTINQYGATPSQNHSLKHIVDSFVDAGFEVAVMKEPVPDVIDLTHYSDFYLSPNDYLQTLYEESFLIKASVKEGIGKLEHHHHHH | soluble
KMGKTPKTEILSFEQYQVTPYLSGLLELDPDTEVFELERLRIADDMPLMFERSYIPAQPFQGLSIADLKRKALYDIFAKDYQETIRLAEEEFYASIALDYEAGLLGIKKGDPVLHIIRKTYNDKNILIELTFSIARADQFRYRVQHHPNG | not soluble
QPDPPCGGRLNSKDAGYITSPGYPQDYPSHQNCEWIVYAPEPNQKIVLNFNPHFEIEKHDCKYDFIEIRDGDSESADLLGKHCGNIAPPTIISSGSMLYIKFTSDYARQGAGFSLRYEIFKTGSEDCSKNFTSPNGTIESPGFPEKYPHNLDCTFTILAKPKMEIILQFLIFDLEHDPLQVGEGDCKYDWLDIWDGIPHVGPLIGKYCGTKTPSELRSSTGILSLTFHTDMAVAKDGFSARYYLVHQEPLENFQCNVPLGMESGRIANEQISASSTYSDGRWTPQQSRLHGDDNGWTPNLDSNKEYLQVDLRFLTMLTAIATQGAISRETQNGYYVKSYKLEVSTNGEDWMVYRHGKNHKVFQANNDATEVVLNKLHAPLLTRFVRIRPQTWHSGIALRLELFGCRVTDAPCSNMLGMLSGLIADSQISASSTQEYLWSPSAARLVSSRSGWFPRIPQAQPGEEWLQVDLGTPKTVKGVIIQGARGGDSITAVEARAFVRKFKVSYSLNGKDWEYIQDPRTQQPKLFEGNMHYDTPDIRRFDPIPAQYVRVYPERWSPAGIGMRLEVLGCDWTHHHHHH | soluble
MTFELKYTDRSYLPDQFKAISGNPPVEWKVTNNLVEYPEALRYMQERVENILAQNAHEQVWLLEHPSLYTAGTSAKKKDLLTPHLFPVYEAGRGGEFTYHGPGQRIAYIMLDLKRRRQDIRAFISALEEWIIQMLAKFNIKGERREDRVGVWVQRHSCQSTQNSLYSEDKIAAIGIRVRKWVSFHGVSINVDPNLAHYSGIVPCGITNHGVTSFLDLGLPTKMHDIDIALKQSFEQIFGPIIDIS | not soluble
MGSDKIHHHHHHMETRKLAVFVDLATTQNYSRSAERMFLSQSTISKYIMALERDWQVQLFERAHRQVTLTRIGQQLLPRAQAILREERQLQQVLAANTAHNAQSLVVQGLPSLAQYQAFHIITAFTKRYPEVKLQFSEASVDRLAHALDHTNVDIVFTRIFGDQPNNYDVLLNETDQFVVLVPKDDPLAQQAEISLSMLAHESILLLKDTIGEDNPLFSAFQKMHTPQMVYDGQRIDLILEMLNQGDGVSVVMARSFDLTGFDNIKAIPLTPTIRSQMAFMKRPDNHAAVVAKFWAFATKYSQSLSD | not soluble
MGSDKIHHHHHHMNIERADFVDRVKIFVKAGDGGNGCVSFRREKYVPKGGPDGGDGGNGGFVFLRANPSVSTLIEFVNKRKFMAENGKHGMGKKMKGRNGKDLFIDVPVGTVVKDAVTGEVIADLNEPGKIVCVARGGRGGRGNAHFATSIKQAPLIAERGEKGESRWLELELKILADVGLVGYPNVGKSSLISRISNARPKIANYPFTTLIPNLGVVKYDDFSFVVADIPGLIEGASEGVGLGNVFLRHVERCYLIAHVIDVSGYEREDPVRDYFVIREEMKKYSPFLLEKPEIVVANKIDLIGKEELEKILKRLRDATNREVIPVSAVTGEGIDLLVSKLASIVREMKVEKPERKEEKFVKPSPVWRRLPEKFHLEVVKEDEGYWVVEGENLRVWIERFDLNQRDARLMLLQVLEKNGLNNKLKEAGVKEGDVVRIGDFEFEYRE | not soluble
MSKHVNWSGVFPAVTTQFNADFSVNLEETHTVISNLVRDGVSGLVVCGSVGENTSLTIEEKMAVTEVAKDASGGRVPVICGIAEFTSAGAAKVAKAVERVGVDGIMVMPALVYSSKPHETAEHFRSVASGTDLPVMVYNNPPIYRNDVTPDILVSLADCENIVCFKDSSGDTRRFIDVRNQVGERFILFAGLDDVVLESVAVGAQGWISGMSNVFPKEGETIFRLARAGRFAEAMPIYEWLMPILHLDARPDLVQCIKLCEQLAGRGSALTRPPRLALRGADREHVERIMAKALASRPALPDVGL | not soluble
MAHHHHHHMDWVKVMNLIYASRDVDATTLAFNAAMSAVEKKGCLKSMLEVFEIMKKKNIKPDLVSYKLLLRLCANYHLGEHAEILFDEMVETDKLTPTYEIYALMISCFAKVGDGHRAVEFVEKLRSDPLVGEVNNWGEAGGVSGSGSADDRQHPAWRDSFAEEATTEEGAEAEGSTYTNQFKEITKKIKHIERGSSKIQYSEYANVIFACNMSNLPEQGIKYFEELLNTGKYMPSTLLLESIFDLLAKNGNYEKCLDYYNKLKDDPNFKKAINVNILNNILKALSVQGKINIIEDLWKNEFDELMLTPNEISYGYMLKVYSIVDDYEKAFKLFKEMQMKKMLSNKNIIPFVYTINAFKNCGIYNYAIYVLRVAKLLGVSSEDLLKLYNDAMVACVNAKKYDVVISLYAELITMQEKGAPSLEISISTLGFVLLAFRELDMREDFTNLKNLIIQKNYKLTPLCGQLVSEQPH | not soluble
MAAPDIKTIVNGINIKQSFAIQNQIRDGGDGELAKPRYQATVVWDSGYHTTSNVTDGQIIIGDEPVHYGGEGMGITPQDLLLTAVGHCLAASYIGGLSAAHINVESLHVHVSGRVNFRAAFAVEPGNPGFEDISVIVEIQTDAPQEQVTALLEKLKHMAPIPDTIMRPVPVNIEIRHQLK | not soluble
MGHHHHHHSHMSLTTSHFIPFPREMVWDWHTRKGAVARLTPPFIPLNPITQAERLADGTTIFSLPAGLKWVARHDLSGFLNGSRFTDVCLTAPVKALANWRHVHNFVDQDGGTLITDSVSTRLPASTLTGMFAYRQTQLIEDLKF | not soluble
MRPEHLSLQLLAWIYLINGNPIVQKGGLEVLDITDSNDLSVRQRFEEVIRLDCASQRRKALKRKTDGDARIYIPTCSPKNSLLYDKVQCYDVSIYCWCVDELSGEPKLGSSTTRGKPKCEETPTTTVAPKRVRRNNRCKEKKRTRFLRRLVSTLKSEMIMSGINATKVSRDSAIRWKFNQLNINHNNVLERSEWKPFKSVLLEWKNVRQCSRNLFKTCDLNKDRKLTFDEWRKCIVQEINRVPAKRPDQLNPFLYILRSE | soluble
SPYIPLMEFSCSHSHLVCLPAEWRTSCMPSSKMKEMSSLFPEDWYQFVLRQLECYHSEEKASNVLEEIAKDKVLKDFYVHTVMTCYFSLFGIDNMAPSPGHILRVYGGVLPWSVALDWLTEKPELFQLALKAFRYTLKLMIDKASLGPIEDFRELIKYLEEYERDWYIGLVSDEKWKEAILQEKPYLFSLGYDSNMGIYTGRVLSLQELLIQVGKLNPEAVRGQWANLSWELLYATNDDEERYSIQAHPLLLRNLTVQAAEPPLGYPIYSSKPLHIHLY | not soluble
